Data published in paper PMC11259706 (The Journal of Biological Chemistry, 2024).

B1: Hsp70 10mer peptide Ac-GSGPTIEEVD-OH [modified: N-terminal acetyl; N-terminal acetyl] [not stated] / protein phosphatase 5 (PP5), human, full-length [human] (parent complex)
chain 1: GSGPTIEEVD
chain 2: MAMAEGERTECAEPPRDEPPADGALKRAEELKTQANDYFKAKDYENAIKFYSQAIELNPSNAIYYGNRSLAYLRTECYGYALGDATRAIELDKKYIKGYYRRAASNMALGKFRAALRDYETVVKVKPHDKDAKMKYQECNKIVKQKAFERAIAGDEHKRSVVDSLDIESMTIEDEYSGPKLEDGKVTISFMKELMQWYKDQKKLHRKCAYQILVQVKEVLSKLSTLVETTLKETEKITVCGDTHGQFYDLLNIFELNGLPSETNPYIFNGDFVDRGSFSVEVILTLFGFKLLYPDHFHLLRGNHETDNMNQIYGFEGEVKAKYTAQMYELFSEVFEWLPLAQCINGKVLIMHGGLFSEDGVTLDDIRKIERNRQPPDSGPMCDLLWSDPQPQNGRSISKRGVSCQFGPDVTKAFLEENNLDYIIRSHEVKAEGYEVAHGGRCVTVFSAPNYCDQMGNKASYIHLQGSDLRPQFHQFTAVPHPNVKPMAYANTLLQLGMM

Variants of: B1
Assay: competition fluorescence polarisation; read at the highest peptide concentration, 100 µM; read off a plot

**Q.** How did the response turn out when chain 1 E8A was run?
**A.** ~74 % tracer bound

**Q.** For chain 1 GSGPTIEEVA, which response is on record?
**A.** ~110 % tracer bound

**Q.** How did the response turn out when chain 1 GSGPTAEEVD was run?
**A.** ~12 % tracer bound

**Q.** With chain 1 GSGPTIAEVD as the variant, how does the response read?
**A.** ~36 % tracer bound

**Q.** Which response does the source give for chain 1 GSGPTIEEAD here?
**A.** ~56 % tracer bound
